Results from patent EP4751739A1 (Jiangsu Hengrui Pharmaceuticals Co., Ltd., dated 2025).
Each block holds one binder with its values, some of them ahead of it.

Assays:
[1] = molecular target: T1, human c-Met on tumor cell lines (human, UniProt P08581 25-1390); test: cell-based or functional assay
[2] = molecular target: T1, human c-Met on tumor cell lines; test: cell-based or functional assay; remark: listed apart in the source
[3] = molecular target: T2, Cynomolgus monkey c-Met protein (cynomolgus monkey); test: SPR (Biacore 8K), ADC captured on Protein A chip, c-Met protein as analyte, 25 °C, 1:1 Langmuir fit
T2 construct: Soluble analyte in Biacore; also called cyno-c-Met

[4] = molecular target: T2, Cynomolgus monkey c-Met protein; test: SPR (Biacore 8K), antibody captured on Protein A chip, c-Met protein as analyte, 25 °C, 1:1 Langmuir fit

T1 sequence (P08581 25-1390): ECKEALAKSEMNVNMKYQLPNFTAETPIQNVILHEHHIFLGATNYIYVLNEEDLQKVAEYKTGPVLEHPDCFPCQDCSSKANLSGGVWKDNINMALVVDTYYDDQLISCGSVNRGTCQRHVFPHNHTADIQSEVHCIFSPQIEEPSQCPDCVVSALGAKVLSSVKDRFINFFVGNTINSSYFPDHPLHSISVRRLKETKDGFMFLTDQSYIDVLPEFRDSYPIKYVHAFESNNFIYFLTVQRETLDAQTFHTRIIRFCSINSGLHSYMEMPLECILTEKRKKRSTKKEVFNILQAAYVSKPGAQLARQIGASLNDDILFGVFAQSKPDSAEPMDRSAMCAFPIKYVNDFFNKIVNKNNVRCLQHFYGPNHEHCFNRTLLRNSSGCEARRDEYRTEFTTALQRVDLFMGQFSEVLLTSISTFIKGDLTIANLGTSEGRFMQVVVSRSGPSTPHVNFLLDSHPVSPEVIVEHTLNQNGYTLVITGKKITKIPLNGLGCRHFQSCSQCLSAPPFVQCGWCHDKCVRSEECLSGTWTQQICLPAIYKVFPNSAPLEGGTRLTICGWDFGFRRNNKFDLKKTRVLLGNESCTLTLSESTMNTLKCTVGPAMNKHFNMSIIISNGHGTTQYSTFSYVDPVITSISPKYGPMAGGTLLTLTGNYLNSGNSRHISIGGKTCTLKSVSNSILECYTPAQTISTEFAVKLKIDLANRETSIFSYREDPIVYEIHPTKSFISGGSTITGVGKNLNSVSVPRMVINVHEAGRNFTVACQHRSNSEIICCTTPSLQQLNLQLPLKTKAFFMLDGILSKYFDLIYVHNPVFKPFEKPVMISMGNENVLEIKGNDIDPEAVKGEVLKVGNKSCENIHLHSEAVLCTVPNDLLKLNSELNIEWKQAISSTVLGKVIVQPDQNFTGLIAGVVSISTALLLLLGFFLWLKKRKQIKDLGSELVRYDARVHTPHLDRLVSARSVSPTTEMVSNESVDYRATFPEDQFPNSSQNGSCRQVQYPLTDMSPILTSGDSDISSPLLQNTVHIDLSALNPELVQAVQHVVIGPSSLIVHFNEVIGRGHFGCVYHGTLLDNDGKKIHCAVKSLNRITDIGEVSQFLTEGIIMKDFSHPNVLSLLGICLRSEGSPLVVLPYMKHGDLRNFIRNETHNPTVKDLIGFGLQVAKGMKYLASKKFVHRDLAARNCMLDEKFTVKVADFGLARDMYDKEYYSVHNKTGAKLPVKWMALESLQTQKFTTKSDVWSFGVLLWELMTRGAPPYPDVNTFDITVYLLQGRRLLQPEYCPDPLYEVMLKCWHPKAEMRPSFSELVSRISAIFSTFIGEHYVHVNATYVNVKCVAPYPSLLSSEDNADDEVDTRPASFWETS

IC50 for the inhibition of proliferation, EBC-1 cells (c-Met expression High), CellTiter Glo, 6 days [1]: 0.065 nM | IC50 for the inhibition of proliferation, HCT116 cells (c-Met expression Low), CellTiter Glo, 6 days [1]: 23.9 nM | IC50 for the inhibition of proliferation, Hs 746T cells (c-Met expression High), CellTiter Glo, 6 days [1]: 0.125 nM | IC50 for the inhibition of proliferation, MKN-45 cells (c-Met expression High), CellTiter Glo, 6 days [1]: 0.055 nM | IC50 for the inhibition of proliferation, NCI-H441 cells (c-Met expression Moderate), CellTiter Glo, 6 days [1]: 0.48 nM | IC50 for the inhibition of proliferation, NCI-H1299 cells (c-Met expression Low), CellTiter Glo, 6 days [1]: > 200 nM | IC50 for the inhibition of proliferation, NCI-H1993 cells (c-Met expression High), CellTiter Glo, 6 days [1]: 0.181 nM | IC50 for the inhibition of proliferation, NCI-N87 cells (c-Met expression Low), CellTiter Glo, 6 days [1]: > 200 nM | IC50 for the inhibition of proliferation, SW480 cells (c-Met expression Low), CellTiter Glo, 6 days [1]: > 200 nM | Endocytosis ratio% at 0 h, EBC-1 cells, 20 nM, flow cytometry [2]: 0% | Endocytosis ratio% at 0.5 h, EBC-1 cells, 20 nM, flow cytometry [2]: 30.2% | Endocytosis ratio% at 2 h, EBC-1 cells, 20 nM, flow cytometry [2]: 61% | Endocytosis ratio% at 4 h, EBC-1 cells, 20 nM, flow cytometry [2]: 80.6% | Endocytosis ratio% at 24 h, EBC-1 cells, 20 nM, flow cytometry [2]: 98.2% | Kd [3]: 48.5 nM
B1: antibody-drug conjugate-1 (ADC-1) (antibody, human IgG2, kappa, V domains shown)
VH: QVQLVESGGGVVQPGRSLRLSCAASGFSLSNYGVHWVRQAPGKGLEWLAVIWSGGSTNYAAAFVSRLTISKDNSKNTVYLQMNSLRAEDTAVYYCARNHDNPYNYAMDYWGQGTTVTVSS
VL: DIVLTQSPDSLAVSLGERATINCRADKSVSTSTYNYLHWYQQKPGQPPKLLIYLASNLASGVPDRFSGSGSGTDFTLTISSLQAEDVAVYYCQHSRDLPPTFGQGTKLEIKR
modifications: compound 9-A may also be coupled to reduced cysteines of this chain; positions not given; compound 9-A (maleimidocaproyl-GGFG linker with exatecan derivative) coupled to cysteines of the TCEP-reduced antibody; positions not given; target DAR n = 5.3, found n = 4.7-5.9 per antibody

IC50 for the inhibition of proliferation, EBC-1 cells (c-Met expression High), CellTiter Glo, 6 days [1]: 0.051 nM | IC50 for the inhibition of proliferation, HCT116 cells (c-Met expression Low), CellTiter Glo, 6 days [1]: > 200 nM | IC50 for the inhibition of proliferation, Hs 746T cells (c-Met expression High), CellTiter Glo, 6 days [1]: 0.134 nM | IC50 for the inhibition of proliferation, MKN-45 cells (c-Met expression High), CellTiter Glo, 6 days [1]: 0.176 nM | IC50 for the inhibition of proliferation, NCI-H441 cells (c-Met expression Moderate), CellTiter Glo, 6 days [1]: > 200 nM | IC50 for the inhibition of proliferation, NCI-H1299 cells (c-Met expression Low), CellTiter Glo, 6 days [1]: > 200 nM | IC50 for the inhibition of proliferation, NCI-H1993 cells (c-Met expression High), CellTiter Glo, 6 days [1]: 0.203 nM | IC50 for the inhibition of proliferation, NCI-N87 cells (c-Met expression Low), CellTiter Glo, 6 days [1]: > 200 nM | IC50 for the inhibition of proliferation, SW480 cells (c-Met expression Low), CellTiter Glo, 6 days [1]: > 200 nM | Endocytosis ratio% at 0 h, EBC-1 cells, 20 nM, flow cytometry [2]: 0% | Endocytosis ratio% at 0.5 h, EBC-1 cells, 20 nM, flow cytometry [2]: 24.5% | Endocytosis ratio% at 2 h, EBC-1 cells, 20 nM, flow cytometry [2]: 62.6% | Endocytosis ratio% at 4 h, EBC-1 cells, 20 nM, flow cytometry [2]: 83% | Endocytosis ratio% at 24 h, EBC-1 cells, 20 nM, flow cytometry [2]: 98.4% | Kd [4]: 47.9 nM
B2: Ab-10 humanized antibody (antibody, human IgG2, kappa, V domains shown)
VH: B1 VH
VL: B1 VL
notes: Humanized anti-c-Met antibody; Embodiments name human IgG2 and kappa constant regions; also called naked antibody Ab-10; Ab-10 Naked antibody
